Test results reported in PMC10877986 (mAbs, 2024).
Where two headings read alike, the source gives them in different places. One block for each binder: values may come before it.

Legend:
Test in all cases: SPR
recombinant human PD-1 [1] = target: T1, recombinant human PD-1 (Homo sapiens, UniProt Q15116)
recombinant human PD-1 [2] = target: T1, recombinant human PD-1; remark: listed apart in the source
[3] = target: recombinant cynomolgus monkey PD-1 (Macaca fascicularis (cynomolgus monkey), UniProt B0LAJ3)
recombinant mouse PD-1 = recombinant mouse PD-1 (Mus musculus, UniProt Q02242)
recombinant mouse PD-1, sequence (Q02242 25-169): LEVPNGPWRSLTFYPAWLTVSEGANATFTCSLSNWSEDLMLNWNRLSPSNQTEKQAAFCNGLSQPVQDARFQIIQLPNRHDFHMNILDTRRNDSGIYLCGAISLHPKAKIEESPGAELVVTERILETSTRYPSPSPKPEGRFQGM

T1 sequence (Q15116 25-170): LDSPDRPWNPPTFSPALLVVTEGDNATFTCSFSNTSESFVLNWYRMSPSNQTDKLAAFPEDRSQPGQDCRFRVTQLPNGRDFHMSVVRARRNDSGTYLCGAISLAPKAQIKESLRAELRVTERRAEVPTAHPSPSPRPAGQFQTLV

Kd (recombinant human PD-1 [1]): 100 pM | Kd (recombinant human PD-1 [2]): 300 pM | Kd [3]: 420 pM | Kd (recombinant mouse PD-1): 1720 pM
B1: h1340.CC (antibody, V domains shown)
VH: EQQLVESGGGVVQPGRSLRLSCAASGFSFSSTYWICWVRQAPGKGLEWIACIYAGSSGNTYYANWAKGRFTISKDSSSTTVFLQMNSLRAEDTAVYFCARAGGAGGGVYTLTRLDLWGQGTLVTVSS
VL: AAQLTQSPSSLSASVGDRVTITCQSSQSVYNNNDLAWYQQKPGKPPKLLIYTPSSLTSGVPSRFSGSGSGTDFTLTISSLQPEDFATYYCLGGYDDDSDNAFGGGTKVEIK

Kd (recombinant human PD-1 [1]): 700 pM | fold decrease in affinity against h1340.CC (recombinant human PD-1 [2]): ~2.5 fold | fold decrease in affinity against rbt1340 (recombinant human PD-1 [2]): 4 fold | fold decrease in affinity against rbt1340 [3]: 6 fold | fold decrease in affinity against h1340.CC (recombinant mouse PD-1): ~4 fold
B2: h1340.SA (antibody, V domains shown)
VH: EQQLVESGGGVVQPGRSLRLSCAASGFSFSSTYWISWVRQAPGKGLEWIAAIYAGSSGNTYYANWAKGRFTISKDSSSTTVFLQMNSLRAEDTAVYFCARAGGAGGGVYTLTRLDLWGQGTLVTVSS
VL: AAQLTQSPSSLSASVGDRVTITCQSSQSVYNNNDLAWYQQKPGKPPKLLIYTPSSLTSGVPSRFSGSGSGTDFTLTISSLQPEDFATYYCLGGYDDDSDNAFGGGTKVEIK

Further lines, the binder ahead of its results:

B3: h1340.SA.5 (antibody, V domains shown)
VH: EQQLVESGGGVVQPGRSLRLSCAASGFSFSSTYWISWVRQAPGKGLEWIAAIYLGSSGNTYYANWAKGRFTISKDSSSTTVFLQMNSLRAEDTAVYFCARAGGAGGGVYTLTRLDLWGQGTLVTVSS
VL: AAQLTQSPSSLSASVGDRVTITCQSSQSVYNNNDLAWYQQKPGKPPKLLIYTPSSLTSGVPSRFSGSGSGTDFTLTISSLQPEDFATYYCLGGYDDDSDNAFGGGTKVEIK
binding result (recombinant human PD-1 [1]): binds

B4: h1340.AA (antibody, V domains shown)
VH: EQQLVESGGGVVQPGRSLRLSCAASGFSFSSTYWIAWVRQAPGKGLEWIAAIYAGSSGNTYYANWAKGRFTISKDSSSTTVFLQMNSLRAEDTAVYFCARAGGAGGGVYTLTRLDLWGQGTLVTVSS
VL: AAQLTQSPSSLSASVGDRVTITCQSSQSVYNNNDLAWYQQKPGKPPKLLIYTPSSLTSGVPSRFSGSGSGTDFTLTISSLQPEDFATYYCLGGYDDDSDNAFGGGTKVEIK
binding result (recombinant human PD-1 [1]): binds

B5: h1340.SA.3 (antibody, V domains shown)
VH: EQQLVESGGGVVQPGRSLRLSCAASGFSFDSTYWISWVRQAPGKGLEWIAAIYAGSSGNTYYANWAKGRFTISKDSSSTTVFLQMNSLRAEDTAVYFCARAGGAGGGVYTLTRLDLWGQGTLVTVSS
VL: AAQLTQSPSSLSASVGDRVTITCQSSQSVYNNNDLAWYQQKPGKPPKLLIYTPSSLTSGVPSRFSGSGSGTDFTLTISSLQPEDFATYYCLGGYDDDSDNAFGGGTKVEIK
binding result (recombinant human PD-1 [1]): binds

B6: h1340.SA.6 (antibody, V domains shown)
VH: EQQLVESGGGVVQPGRSLRLSCAASGFSFSSTYWISWVRQAPGKGLEWIAAIYAGSSGNTYYANWAKGRFTISKDSSSTTVFLQMNSLRAEDTAVYFCARSGGAGGGVYTLTRLDLWGQGTLVTVSS
VL: AAQLTQSPSSLSASVGDRVTITCQSSQSVYNNNDLAWYQQKPGKPPKLLIYTPSSLTSGVPSRFSGSGSGTDFTLTISSLQPEDFATYYCLGGYDDDSDNAFGGGTKVEIK
binding result (recombinant human PD-1 [1]): binds
